Laboratory results taken from US12427210B2, “Compounds comprising a fibroblast activation protein ligand and use thereof” (priority 2019, dated 2025).

How the values were obtained:
[1] = biological target: Ataxin3 (Homo sapiens (Human)) (UniProt P54252)
[2] = biological target: serine protease NS3 (a.a. 3-181) from Hepatitis C virus genotype 1b (mutant R155K) (Hepatitis C virus genotype 1b)
[3] = biological target: serine protease NS3 (a.a. 3-181) from Hepatitis C virus genotype 1a (mutant D168V) (Hepatitis C virus genotype 1a)
[4] = biological target: FAP (enzyme of the specificity protease screening) (Homo sapiens (Human)) (UniProt Q12884)
[5] = biological target: Matrix metalloprotease1 (Homo sapiens (Human)) (UniProt P03956)
[6] = biological target: serine protease NS3 (a.a. 3-181) from Hepatitis C virus genotype 1b (mutant D168V) (Hepatitis C virus genotype 1b)
[7] = biological target: T1, Caspase-3 (Homo sapiens (Human)) (UniProt P42574)
T1 sequence: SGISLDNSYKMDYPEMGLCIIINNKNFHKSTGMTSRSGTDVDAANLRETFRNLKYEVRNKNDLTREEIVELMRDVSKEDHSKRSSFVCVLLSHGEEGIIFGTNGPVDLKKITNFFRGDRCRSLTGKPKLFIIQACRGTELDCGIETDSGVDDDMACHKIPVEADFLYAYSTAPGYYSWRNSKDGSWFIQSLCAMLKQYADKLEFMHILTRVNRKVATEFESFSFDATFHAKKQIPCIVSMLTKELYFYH

[8] = biological target: DPP7 (Homo sapiens (Human)) (UniProt Q9UHL4)
[9] = biological target: serine protease NS3 (a.a. 3-181) from Hepatitis C virus genotype 1b (Hepatitis C virus genotype 1b)
[10] = biological target: DPP9 (Homo sapiens (Human)) (UniProt Q86TI2)
[11] = biological target: Ubiquitin carboxyl-terminal hydrolase 5 (Homo sapiens (Human)) (UniProt P45974)
[12] = biological target: T2, A20 (Homo sapiens (Human)) (UniProt P21580)
T2 sequence: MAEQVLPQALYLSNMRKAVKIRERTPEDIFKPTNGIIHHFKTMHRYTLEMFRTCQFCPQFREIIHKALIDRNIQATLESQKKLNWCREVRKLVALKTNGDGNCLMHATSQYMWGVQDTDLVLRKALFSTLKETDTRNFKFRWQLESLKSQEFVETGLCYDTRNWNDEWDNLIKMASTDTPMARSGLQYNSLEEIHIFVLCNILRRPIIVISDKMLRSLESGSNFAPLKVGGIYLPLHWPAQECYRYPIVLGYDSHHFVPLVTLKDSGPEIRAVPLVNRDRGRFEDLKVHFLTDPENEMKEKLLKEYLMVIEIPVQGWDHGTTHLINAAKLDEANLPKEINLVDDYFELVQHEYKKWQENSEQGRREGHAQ

[13] = biological target: Matrix metalloprotease 9 (mutant Q279R) (Homo sapiens (Human)) (UniProt P14780)
[14] = biological target: Caspase-8 (Homo sapiens (Human)) (UniProt Q14790)
[15] = biological target: Activated Protein C (Homo sapiens (Human)) (UniProt P04070)
[16] = biological target: Cathepsin B (Homo sapiens (Human)) (UniProt P07858)
[17] = biological target: T3, Ubiquitin carboxy-terminal hydrolase L3 (Homo sapiens (Human)) (UniProt P15374)
T3 sequence: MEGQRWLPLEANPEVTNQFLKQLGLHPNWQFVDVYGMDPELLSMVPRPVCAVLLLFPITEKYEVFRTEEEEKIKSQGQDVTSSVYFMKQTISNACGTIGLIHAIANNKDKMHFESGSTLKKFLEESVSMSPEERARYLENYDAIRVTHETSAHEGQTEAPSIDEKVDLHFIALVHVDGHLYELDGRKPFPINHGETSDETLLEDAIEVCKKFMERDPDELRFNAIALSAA

[18] = biological target: Beta secretase (Homo sapiens (Human)) (UniProt P56817)
[19] = biological target: Cathepsin S (Homo sapiens (Human)) (UniProt P25774)
[20] = biological target: T4, Cathepsin F (Homo sapiens (Human)) (UniProt Q9UBX1)
T4 sequence: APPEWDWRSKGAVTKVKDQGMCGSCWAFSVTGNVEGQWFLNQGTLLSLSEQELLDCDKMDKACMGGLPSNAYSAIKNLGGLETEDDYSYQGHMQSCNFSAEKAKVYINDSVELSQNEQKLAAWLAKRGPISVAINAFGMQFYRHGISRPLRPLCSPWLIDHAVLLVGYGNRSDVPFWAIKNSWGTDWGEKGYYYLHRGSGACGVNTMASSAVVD

[21] = biological target: Cathepsin L (Homo sapiens (Human)) (UniProt P07711)
[22] = biological target: T5, Caspase-6 (Homo sapiens (Human)) (UniProt P55212)
T5 sequence: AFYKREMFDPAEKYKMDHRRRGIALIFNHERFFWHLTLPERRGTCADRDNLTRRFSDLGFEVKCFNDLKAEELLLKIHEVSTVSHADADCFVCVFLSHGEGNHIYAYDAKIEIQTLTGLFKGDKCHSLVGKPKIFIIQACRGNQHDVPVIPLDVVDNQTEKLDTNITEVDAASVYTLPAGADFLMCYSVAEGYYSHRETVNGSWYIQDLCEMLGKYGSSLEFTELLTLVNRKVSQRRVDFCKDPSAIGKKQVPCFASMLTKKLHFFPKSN

[23] = biological target: Caspase-9 (Homo sapiens (Human)) (UniProt P55211)
[24] = biological target: recombinant human PREP (R&D systems, #4308-SE) (human) (UniProt P48147)
[25] = biological target: Recombinant human DPP4 (R&D systems #9168-SE) (human) (UniProt P27487)
[26] = biological target: Recombinant human FAP (R&D systems, #3715-SE) (human)
Sequence of Recombinant human FAP (R&D systems, #3715-SE) (human) (chain, as listed by the source limits assumed): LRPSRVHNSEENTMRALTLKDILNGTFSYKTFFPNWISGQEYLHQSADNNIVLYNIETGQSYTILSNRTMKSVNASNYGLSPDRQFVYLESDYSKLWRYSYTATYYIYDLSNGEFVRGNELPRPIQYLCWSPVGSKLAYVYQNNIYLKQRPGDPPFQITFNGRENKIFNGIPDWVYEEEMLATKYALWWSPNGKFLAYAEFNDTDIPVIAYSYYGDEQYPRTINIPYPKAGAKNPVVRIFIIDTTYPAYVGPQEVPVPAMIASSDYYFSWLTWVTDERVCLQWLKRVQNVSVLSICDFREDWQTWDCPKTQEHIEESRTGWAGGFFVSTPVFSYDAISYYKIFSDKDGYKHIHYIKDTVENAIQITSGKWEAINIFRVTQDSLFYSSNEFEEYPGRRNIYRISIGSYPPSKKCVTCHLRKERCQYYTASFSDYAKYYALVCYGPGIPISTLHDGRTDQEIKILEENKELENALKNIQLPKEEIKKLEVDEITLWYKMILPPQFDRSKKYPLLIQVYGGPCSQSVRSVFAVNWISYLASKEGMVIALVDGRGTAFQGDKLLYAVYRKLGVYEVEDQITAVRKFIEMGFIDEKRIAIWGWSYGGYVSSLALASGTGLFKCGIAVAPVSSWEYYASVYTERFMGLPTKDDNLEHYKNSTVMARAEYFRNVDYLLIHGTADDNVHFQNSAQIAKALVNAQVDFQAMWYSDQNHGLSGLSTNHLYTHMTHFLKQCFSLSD

Sequence of Ataxin3 (Homo sapiens (Human)) (P54252 whole entry): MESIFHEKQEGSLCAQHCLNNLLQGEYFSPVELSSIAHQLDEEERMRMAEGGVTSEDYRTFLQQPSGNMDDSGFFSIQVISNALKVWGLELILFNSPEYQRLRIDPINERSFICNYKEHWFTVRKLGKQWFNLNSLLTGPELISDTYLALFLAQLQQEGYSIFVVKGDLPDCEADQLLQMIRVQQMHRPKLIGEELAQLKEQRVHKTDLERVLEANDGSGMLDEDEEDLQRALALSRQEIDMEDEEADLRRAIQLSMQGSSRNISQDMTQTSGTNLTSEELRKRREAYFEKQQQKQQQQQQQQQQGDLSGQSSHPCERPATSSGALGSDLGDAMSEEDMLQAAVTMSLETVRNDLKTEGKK
Sequence of Caspase-9 (Homo sapiens (Human)) (P55211 whole entry): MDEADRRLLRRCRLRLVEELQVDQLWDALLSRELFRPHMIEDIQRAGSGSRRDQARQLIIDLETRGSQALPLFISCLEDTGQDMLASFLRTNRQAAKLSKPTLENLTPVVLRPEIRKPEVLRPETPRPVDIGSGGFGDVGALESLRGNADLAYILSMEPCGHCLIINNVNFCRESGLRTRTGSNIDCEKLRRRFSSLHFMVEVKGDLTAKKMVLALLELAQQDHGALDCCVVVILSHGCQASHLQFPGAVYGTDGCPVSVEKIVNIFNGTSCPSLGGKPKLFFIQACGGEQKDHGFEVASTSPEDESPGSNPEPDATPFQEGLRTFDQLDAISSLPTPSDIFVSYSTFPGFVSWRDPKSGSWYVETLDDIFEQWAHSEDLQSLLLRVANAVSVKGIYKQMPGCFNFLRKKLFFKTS
Sequence of Caspase-8 (Homo sapiens (Human)) (Q14790 217-479 limits assumed): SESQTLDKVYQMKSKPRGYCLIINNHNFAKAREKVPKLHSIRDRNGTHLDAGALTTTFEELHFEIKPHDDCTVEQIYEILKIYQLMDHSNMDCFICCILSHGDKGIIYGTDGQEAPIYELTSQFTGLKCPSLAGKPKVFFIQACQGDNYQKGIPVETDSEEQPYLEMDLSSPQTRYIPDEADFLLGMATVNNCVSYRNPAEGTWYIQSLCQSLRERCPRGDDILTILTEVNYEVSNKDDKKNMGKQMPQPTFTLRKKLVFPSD
Sequence of Ubiquitin carboxyl-terminal hydrolase 5 (Homo sapiens (Human)) (P45974 whole entry): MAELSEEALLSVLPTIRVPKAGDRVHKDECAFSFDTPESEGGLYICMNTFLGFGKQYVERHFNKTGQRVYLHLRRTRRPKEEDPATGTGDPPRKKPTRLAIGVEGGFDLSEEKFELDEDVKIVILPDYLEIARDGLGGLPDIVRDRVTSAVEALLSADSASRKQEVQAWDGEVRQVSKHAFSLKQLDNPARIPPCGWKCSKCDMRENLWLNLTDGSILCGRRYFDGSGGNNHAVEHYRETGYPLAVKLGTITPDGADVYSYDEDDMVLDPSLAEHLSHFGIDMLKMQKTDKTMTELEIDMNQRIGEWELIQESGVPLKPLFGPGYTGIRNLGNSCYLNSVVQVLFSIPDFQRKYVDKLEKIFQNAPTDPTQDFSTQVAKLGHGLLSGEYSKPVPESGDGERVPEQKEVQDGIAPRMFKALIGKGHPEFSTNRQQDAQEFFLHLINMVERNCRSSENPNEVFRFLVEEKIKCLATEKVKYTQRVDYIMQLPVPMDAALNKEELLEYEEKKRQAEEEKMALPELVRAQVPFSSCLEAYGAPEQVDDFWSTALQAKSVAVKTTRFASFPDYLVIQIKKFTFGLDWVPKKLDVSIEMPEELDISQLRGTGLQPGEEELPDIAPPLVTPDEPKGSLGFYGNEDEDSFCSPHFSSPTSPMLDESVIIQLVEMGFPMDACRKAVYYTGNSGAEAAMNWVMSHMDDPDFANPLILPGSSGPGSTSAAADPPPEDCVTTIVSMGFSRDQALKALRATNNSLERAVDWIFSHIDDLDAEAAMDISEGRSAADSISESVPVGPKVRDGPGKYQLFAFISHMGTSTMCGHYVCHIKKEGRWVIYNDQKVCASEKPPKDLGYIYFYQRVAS
Sequence of Matrix metalloprotease1 (Homo sapiens (Human)) (P03956 100-469): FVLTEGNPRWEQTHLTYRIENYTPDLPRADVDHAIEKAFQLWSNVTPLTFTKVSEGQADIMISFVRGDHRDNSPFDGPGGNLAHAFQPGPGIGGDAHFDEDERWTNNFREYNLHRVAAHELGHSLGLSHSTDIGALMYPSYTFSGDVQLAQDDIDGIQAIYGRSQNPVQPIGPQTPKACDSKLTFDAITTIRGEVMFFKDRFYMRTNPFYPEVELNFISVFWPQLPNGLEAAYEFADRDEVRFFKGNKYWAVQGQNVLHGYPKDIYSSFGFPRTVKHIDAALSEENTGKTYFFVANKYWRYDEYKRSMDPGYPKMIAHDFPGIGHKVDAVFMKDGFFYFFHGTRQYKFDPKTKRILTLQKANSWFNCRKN
Sequence of FAP (enzyme of the specificity protease screening) (Homo sapiens (Human)) (Q12884 26-760 limits assumed): as the sequence (chain, as listed by the source limits assumed) above
Sequence of recombinant human PREP (R&D systems, #4308-SE) (human) (P48147 whole entry): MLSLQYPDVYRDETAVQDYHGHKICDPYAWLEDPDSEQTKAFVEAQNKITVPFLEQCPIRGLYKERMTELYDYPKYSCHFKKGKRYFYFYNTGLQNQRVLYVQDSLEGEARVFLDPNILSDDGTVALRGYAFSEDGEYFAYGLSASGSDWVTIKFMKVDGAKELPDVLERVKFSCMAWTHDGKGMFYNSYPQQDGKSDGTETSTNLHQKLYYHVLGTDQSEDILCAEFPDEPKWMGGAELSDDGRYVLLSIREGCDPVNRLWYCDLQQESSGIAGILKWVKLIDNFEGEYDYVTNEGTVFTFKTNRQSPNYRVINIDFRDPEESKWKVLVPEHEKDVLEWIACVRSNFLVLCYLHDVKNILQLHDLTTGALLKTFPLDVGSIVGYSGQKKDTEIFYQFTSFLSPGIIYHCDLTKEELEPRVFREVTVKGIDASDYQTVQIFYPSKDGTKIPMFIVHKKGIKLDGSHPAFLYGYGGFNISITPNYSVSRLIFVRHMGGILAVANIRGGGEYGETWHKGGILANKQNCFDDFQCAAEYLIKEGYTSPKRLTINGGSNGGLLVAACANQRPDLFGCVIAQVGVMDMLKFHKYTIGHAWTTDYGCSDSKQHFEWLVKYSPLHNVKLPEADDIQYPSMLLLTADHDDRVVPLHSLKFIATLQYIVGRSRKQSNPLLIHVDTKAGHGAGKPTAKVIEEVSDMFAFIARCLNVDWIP

Row | Substance | Percentage inhibition (%) (% inhibition at 10 µM) [1] | Percentage inhibition (%) (% inhibition at 10 µM) [2] | Percentage inhibition (%) (% inhibition at 10 µM) [3] | Percentage inhibition (%) (% inhibition at 1 µM) [4] | Percentage inhibition (%) (% inhibition at 10 µM) [5] | Percentage inhibition (%) (% inhibition at 10 µM) [6] | Percentage inhibition (%) (% inhibition at 10 µM) [7] | Percentage inhibition (%) (% inhibition at 10 µM) [8] | Percentage inhibition (%) (% inhibition at 10 µM) [9] | Percentage inhibition (%) (% inhibition at 10 µM) [10] | Percentage inhibition (%) (% inhibition at 10 µM) [11] | Percentage inhibition (%) (% inhibition at 10 µM) [12] | Percentage inhibition (%) (% inhibition at 10 µM) [13] | Percentage inhibition (%) (% inhibition at 10 µM) [14] | Percentage inhibition (%) (% inhibition at 10 µM) [15] | Percentage inhibition (%) (% inhibition at 10 µM) [16] | Percentage inhibition (%) (% inhibition at 10 µM) [17] | Percentage inhibition (%) (% inhibition at 10 µM) [18] | Percentage inhibition (%) (% inhibition at 10 µM) [19] | Percentage inhibition (%) (% inhibition at 10 µM) [20] | other results
1 | Hex-[Cys(tMeBn(DOTA-AET))-Pro-Pro-Thr-Gln-Phe-Cys]-OH (3BP-3554) (peptide) | -1 | 0 | -372 | 97 | -7 | -17 | -1 | -7 | -9 | -5 | -2 | 0 | 2 | -3 | 1 | 2 | 0 | 7 | -23 | -25 | Percentage inhibition (%) (% inhibition at 10 µM) [21]: -6; Percentage inhibition (%) (% inhibition at 10 µM) [22]: -3; Percentage inhibition (%) (% inhibition at 10 µM) [23]: -2
2 | Hex-[Cys(tMeBn(DOTA-PP))-Pro-Pro-Thr-Gln-Phe-Cys]-Asp-NH2 (3BP-3407) (peptide) | 10 | 5 | -68 | 98 | 2 | -6 | -2 | -3 | 5 | 0 | 46 | -4 | 2 | 0 | 8 | 36 | 14 | -5 | 18 | -24 | pIC50 (PREP) [24]: < 6 pIC50; pIC50 (DPP4) [25]: < 6 pIC50; Percentage inhibition (%) (% inhibition at 10 µM) [21]: 6; Percentage inhibition (%) (% inhibition at 10 µM) [22]: -1; Percentage inhibition (%) (% inhibition at 10 µM) [23]: 8; pIC50 Category (Activity) [26]: > 8 pIC50
